Data published in US20150218578.

test system: T1, OsMYB55 (Oryza sativa); assay: cell_activity; conditions: GUS transactivation in tobacco leaf vs empty vector; almost eight-fold
T1 sequence: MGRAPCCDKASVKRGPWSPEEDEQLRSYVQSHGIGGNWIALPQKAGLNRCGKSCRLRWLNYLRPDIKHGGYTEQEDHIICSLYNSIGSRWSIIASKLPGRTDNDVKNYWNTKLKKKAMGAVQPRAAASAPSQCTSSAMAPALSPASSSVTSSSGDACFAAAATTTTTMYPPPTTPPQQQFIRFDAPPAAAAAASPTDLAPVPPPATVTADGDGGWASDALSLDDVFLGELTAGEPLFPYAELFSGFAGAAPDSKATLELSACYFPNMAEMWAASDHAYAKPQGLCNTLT

activity, 8 fold:
OsGAD3 promoter 1.5-2 kb (GUS reporter)
OsGAT1 promoter 1.5-2 kb (GUS reporter)
OsGS1;2 promoter 1.5-2 kb (GUS reporter)
